Target: CBLB (UniProt Q3TTA7)
Test: anti-CBLB IP, dectin-1 blot
Details: reference: wild-type Flag-dectin-1; sites Y15

## dectin-1 (from UniProt Q6QLQ4) Flag-dectin-1 Y15F
  binding against the reference: lost
